According to PMC3049778:

Biological target: GST-H486R optineurin (human) (UniProt Q96CV9)
Assay: pull-down; GST-optineurin or GST-H486R on glutathione agarose beads incubated 6-8 hours with lysates of HeLa cells transfected with HA-CYLD; anti-HA immunoblot

UniProt Q96CV9, sequence (Q96CV9 whole entry H486R): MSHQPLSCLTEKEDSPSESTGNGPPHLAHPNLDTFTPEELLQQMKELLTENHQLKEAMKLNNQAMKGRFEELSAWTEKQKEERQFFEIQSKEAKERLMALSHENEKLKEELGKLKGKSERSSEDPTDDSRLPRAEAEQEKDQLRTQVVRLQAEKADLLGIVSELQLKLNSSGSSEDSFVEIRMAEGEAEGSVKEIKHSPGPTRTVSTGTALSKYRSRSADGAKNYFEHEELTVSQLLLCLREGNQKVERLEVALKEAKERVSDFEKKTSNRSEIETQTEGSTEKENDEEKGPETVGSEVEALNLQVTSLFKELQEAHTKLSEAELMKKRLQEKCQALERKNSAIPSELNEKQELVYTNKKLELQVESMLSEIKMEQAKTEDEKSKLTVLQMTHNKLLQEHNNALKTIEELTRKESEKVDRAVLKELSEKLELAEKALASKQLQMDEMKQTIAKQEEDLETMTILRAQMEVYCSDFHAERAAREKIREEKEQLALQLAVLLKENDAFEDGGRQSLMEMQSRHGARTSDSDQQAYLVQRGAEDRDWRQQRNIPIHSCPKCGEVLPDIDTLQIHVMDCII

With “HA-tagged CYLD (CYLD cDNA obtained in the yeast two-hybrid screen, in pCDNA3.1-HA) (from UniProt Q9NQC7 403-956) (domain or fragment)” the fold less binding than wild type optineurin was 5 fold.
